Test results published in US20230002489A1 (SHANGHAI EPIMAB BIOTHERAPEUTICS, published 2023).

Assays:
[1] = biological target: T1, human CD3 on the surface of Jurkat cells (human, UniProt P07766 23-207; P09693 23-182; P04234 22-171); assay: cell binding assay, Jurkat cells
T1 construct: whole, on cells; Endogenous CD3 complex of the Jurkat T cell line; also called cell surface CD3 target on Jurkat cells; CD3-expressing Jurkat cells

[2] = biological target: T2, recombinant huCD3εγ/Fc fusion protein (fusion protein heterodimer) (human); assay: ELISA on plate-coated human CD3e/g heterodimer-Fc, OD450nm, unit taken from the concentration axis
T2 construct: also called huCD3/Fc dimer; heterodimeric CD3εγ/Fc fusion protein
Description: (§1) The binding properties of the isolated murine anti-CD3 antibodies were measured with ELISA as follows: Heterodimeric CD3εγ/Fc fusion protein was coated at 1 μg/mL on 96-well plates at 4° C. overnight. Plates were washed once with washing buffer (PBS containing 0.05% Tween 20) and blocked with ELISA blocking buffer (1% BSA in PBS containing 0.05% Tween 20) at room temperature for 2 hours. Anti-CD3 antibodies were then added and incubated at 37° C. for 1 hour. Plates were washed three times with washing buffer. HRP labeled anti-mouse IgG secondary antibody (Sigma, Cat. #A0168) was added and the plates were incubated at 37° C. for 30 minutes then washed 5 times in washing buffer. 100 μl of tetramethylbenzidine (TMB) chromogenic solution was added to each well. Following color development, the reaction was stopped with 1 Normal HCl and absorbance at 450 nm was measured on a Varioskan™ LUX microplate reader (ThermoFisher Scientific). Binding signals were plotted against antibody concentration with GraphPad Prism 5.0 software and EC50s were calculated accordingly.

[3] = biological target: T3, cynoCD3εγ/Fc fusion protein (cynomolgus monkey, UniProt Q95LI5 22-117; Q95LI7 23-113); assay: ELISA on plate-coated cyno CD3e/g heterodimer-Fc, OD450nm, unit taken from the concentration axis
T3 construct: also called cynomolgus monkey CD3ε/γ heterodimer-Fc fusion protein; not shown: linker and Fc not described for the cynomolgus construct
T3 sequence (looked up) 1: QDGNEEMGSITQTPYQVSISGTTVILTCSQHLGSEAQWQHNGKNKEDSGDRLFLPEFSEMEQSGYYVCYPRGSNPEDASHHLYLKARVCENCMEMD
T3 sequence (looked up) 2: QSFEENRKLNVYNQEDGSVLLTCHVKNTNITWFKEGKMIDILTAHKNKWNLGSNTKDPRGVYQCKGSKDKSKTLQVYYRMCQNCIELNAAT
Description: as §1

[4] = biological target: T1, human CD3 on the surface of Jurkat cells; assay: flow cytometry on Jurkat cells, MFI against antibody conc. (nM)
Description: Different humanized VH and VK combinations led to humanized anti-CD3 variants with different CD3 binding affinities. The binding activity of the humanized variants of mAbCD3-001 were tested via flow cytometry with the human CD3-expressing Jurkat T cell line. 5×10⁵ Jurkat cells in FACS buffer were seeded into each well of a 96-well plate. Cells were centrifuged at 400 g for 5 minutes and supernatants were discarded. For each well, 100 μl of serially diluted antibodies were then added and mixed with the cells. After 40 minutes incubation at 4° C., plates were washed several times to remove excess antibodies. […] After another round of centrifugation and a washing step, cells were resuspended in FACS buffer for reading on a CytoFLEX Flow Cytometer (Beckman Coulter). Median Fluorescence Intensity (MFI) readouts were plotted against antibody concentration and analyzed with GraphPad Prism 5.0 software.

[5] = biological target: T1, human CD3 on the surface of Jurkat cells; assay: flow cytometry on Jurkat cells, Median-APC against antibody conc. (nM)
[6] = biological target: T3, cynoCD3εγ/Fc fusion protein; assay: SPR, Biacore T200, 25 C; antigen/Fc amine-coupled to the chip, FIT-Ig injected
[7] = biological target: T4, cynomolgus BCMA(ECD)/Fc target polypeptide (cynomolgus); assay: as above
T4 construct: extracellular domain; also called Cyno BCMA (ECD); cynoBCMA/Fc

[8] = biological target: T2, recombinant huCD3εγ/Fc fusion protein …; assay: as above
[9] = biological target: T1, human CD3 on the surface of Jurkat cells; assay: flow cytometry on Jurkat/NFAT/luc cells, MFI against antibody conc. (nM)
BCMA on NCI-H929 cells [10] = biological target: T5, BCMA on NCI-H929 cells (human, UniProt Q02223 1-184); assay: flow cytometry on NCI-H929 cells, MFI
T5 construct: whole, on cells; also called BCMA-expressing NCI-H929 cells; BCMA-expressing target cells
T5 sequence (looked up): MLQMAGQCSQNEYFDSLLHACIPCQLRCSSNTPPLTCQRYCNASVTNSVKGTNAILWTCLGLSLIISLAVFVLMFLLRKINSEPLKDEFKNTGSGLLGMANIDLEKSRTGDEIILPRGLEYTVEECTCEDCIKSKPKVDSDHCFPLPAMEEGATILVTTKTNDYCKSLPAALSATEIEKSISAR

[11] = biological target: T6, BCMA on HEK293F-BCMA-NF-kB-luc cells (clone 1H2) (UniProt Q02223 1-184, limits assumed); assay: cell-based or functional assay
T6 sequence (looked up): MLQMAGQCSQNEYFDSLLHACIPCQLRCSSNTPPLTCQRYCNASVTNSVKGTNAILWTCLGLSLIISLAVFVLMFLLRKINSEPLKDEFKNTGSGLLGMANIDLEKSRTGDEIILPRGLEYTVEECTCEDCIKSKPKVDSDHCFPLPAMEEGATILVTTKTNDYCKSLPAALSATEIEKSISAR

[12] = biological target: T6, BCMA on HEK293F-BCMA-NF-kB-luc cells …; assay: cell-based or functional assay; remark: listed apart in the source
BCMA on NCI-H929 cells [13] = biological target: T5, BCMA on NCI-H929 cells; assay: cell-based or functional assay
[14] = biological target: T7, recombinant human BCMA extracellular domain/Fc dimer (human); assay: SPR, Biacore T200, 25 C; antibody captured on anti-mouse IgG Fc, BCMA(ECD)/Fc injected
T7 construct: also called Human BCMA (ECD); human BCMA(ECD)/Fc
Description: (§2) Briefly, goat anti-mouse IgG Fc antibody was directly immobilized across a biosensor chip, and antibody samples were injected over reaction matrices at a flow rate of 5 μl/min. Mouse anti-BCMA IgG test antibody was injected over the immobilized surface and captured by the immobilized anti-Fc antibodies. Human and cynomolgus BCMA(ECD)/Fc target polypeptides were then injected over the captured mouse anti-BCMA IgG surface. The association and dissociation rate constants, kₒₙ (M⁻¹s⁻¹) and koff (s⁻¹), respectively, were determined with a continuous flow rate of 30 μl/min. Rate constants were derived by making kinetic binding measurements at five different concentrations of target BCMA(ECD) polypeptide. The equilibrium dissociation constant KD (M) of the reaction between antibodies and related target proteins was then calculated from the kinetic rate constants using the formula KD=koff/kₒₙ. Kinetic constants were determined by processing and fitting the data to a 1:1 binding model using Biacore analysis software.

[15] = biological target: T4, cynomolgus BCMA(ECD)/Fc target …; assay: as above
Description: as §2

T1 sequence (P07766 23-207, chain 1 of 3): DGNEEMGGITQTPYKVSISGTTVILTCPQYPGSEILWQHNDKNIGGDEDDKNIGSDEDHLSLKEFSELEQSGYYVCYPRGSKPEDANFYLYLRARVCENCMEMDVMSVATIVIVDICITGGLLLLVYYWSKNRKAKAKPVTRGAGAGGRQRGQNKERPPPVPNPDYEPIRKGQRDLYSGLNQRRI
T1 sequence (P09693 23-182, chain 2 of 3): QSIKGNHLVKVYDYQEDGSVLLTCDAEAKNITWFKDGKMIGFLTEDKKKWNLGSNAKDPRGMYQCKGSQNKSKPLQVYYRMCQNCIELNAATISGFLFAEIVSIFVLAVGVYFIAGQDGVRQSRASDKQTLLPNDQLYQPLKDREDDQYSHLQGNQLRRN
T1 sequence (P04234 22-171, chain 3 of 3): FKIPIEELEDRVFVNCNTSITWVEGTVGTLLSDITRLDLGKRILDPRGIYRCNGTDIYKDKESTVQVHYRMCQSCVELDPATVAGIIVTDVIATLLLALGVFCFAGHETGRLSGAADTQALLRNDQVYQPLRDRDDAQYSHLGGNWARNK
T2 sequence (chain, as listed by the source limits assumed, chain 1 of 2): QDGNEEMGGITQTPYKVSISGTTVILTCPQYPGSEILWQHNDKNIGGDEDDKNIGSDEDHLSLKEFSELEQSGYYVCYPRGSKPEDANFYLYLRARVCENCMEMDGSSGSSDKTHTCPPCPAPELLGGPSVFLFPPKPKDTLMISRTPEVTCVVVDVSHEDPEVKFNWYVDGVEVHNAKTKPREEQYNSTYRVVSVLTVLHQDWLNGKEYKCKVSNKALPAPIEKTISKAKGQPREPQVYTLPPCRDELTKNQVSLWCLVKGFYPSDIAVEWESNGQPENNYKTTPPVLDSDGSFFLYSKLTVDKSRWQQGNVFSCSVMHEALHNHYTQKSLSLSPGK
T2 sequence (chain, as listed by the source limits assumed, chain 2 of 2): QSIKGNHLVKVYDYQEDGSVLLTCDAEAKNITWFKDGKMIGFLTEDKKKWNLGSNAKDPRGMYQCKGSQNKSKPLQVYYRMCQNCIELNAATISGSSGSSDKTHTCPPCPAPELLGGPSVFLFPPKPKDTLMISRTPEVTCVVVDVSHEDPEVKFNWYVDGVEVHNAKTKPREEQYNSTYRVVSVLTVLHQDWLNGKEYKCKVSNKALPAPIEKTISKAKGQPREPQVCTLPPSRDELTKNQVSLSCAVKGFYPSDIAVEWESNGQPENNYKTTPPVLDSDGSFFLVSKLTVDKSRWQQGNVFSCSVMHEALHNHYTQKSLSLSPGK

B1: mAbCD3-001 (antibody, V domains shown)
VH: QVQLQQSGPDLVKPGASVKISCKASGFSFTNYYVHWMKQRPGQGLEWIGWISPGSDNTKYNEKFKGKATLTADTSSTTAYMQLSSLTSEDSAVYYCARDDYGNYYFDYWGRGSTLTVSS
VL: DIVMSQSPSSLAVSAGEKVTMTCKSSQSLLNSRTRKNYLAWYQQKPGQSPKLLIYWASTRESGVPDRFTGSGSGTDFTLTISSVQAEDLAVYYCKQSYILRTFGGGTKLEIK
notes: Murine hybridoma monoclonal antibody
Does B1 bind [1]?
Result: binds

And the EC50 [2]?
The EC50 was 0.028 µg/mL.

And the EC50 [3]?
The EC50 was 0.0235 µg/mL.

B2: mAbCD3-002 (antibody, V domains shown)
VH: QVQLQQSGPELVKPGASVRISCKASGYTFTNYYIHWVKQRPGQGLEWIGWINLGDVNTKFNEKFKDKATLTADKSSTTAYMQLSSLTSEDSAVYFCARDGYSFYYFDFWGQGTTLTVSS
VL: DIVMSQSPSSLAVSVGEKVTMSCKASQSLFNSRTRKNYLAWYQQKPGQSPKLLIYWASTRESGVPDRFTGSGSGTDFIFTISSVQAEDLAIYYCIQSHTLRTFGGGTKLEIK
notes: as for B1
Does B2 bind [1]?
Result: binds

What about the EC50 [2] of the same binder?
Its EC50 is 0.01 µg/mL.

And the EC50 [3]?
Its EC50 is 0.0109 µg/mL.

B3: HuEM0006-01c (antibody, human IgG1, kappa, L234A L235A, V domains shown)
VH: QVQLQQSGPDLVKPGASVKISCKASGFSFTNYYVHWMKQRPGQGLEWIGWISPGSDNTKYNEKFKGKATLTADTSSTTAYMQLSSLTSEDSAVYYCARDDYGNYYFDYWGRGSTLTVSS
VL: DIVMSQSPSSLAVSAGEKVTMTCKSSQSLLNSRTRKNYLAWYQQKPGQSPKLLIYWASTRESGVPDRFTGSGSGTDFTLTISSVQAEDLAVYYCKQSYILRTFGGGTKLEIKR
notes: also called chimeric control antibody
Does B3 bind [4]?
Result: binds

B4: FIT1006-31b(D-T) (bispecific antibody, human IgG1, kappa, L234A L235A)
chain 1: not shown
chain 2: EVQLVQSGAEVKKPGASVKVSCKASGYTFTNFWMHWVRQAPGQRLEWMGAFYPGNDDTYYNQKFKGRVTITADTSASTAYMELSSLRSEDMAVYYCARSGYYGSSDAMDYWGQGTTVTVSSASTKGPSVFPLAPSSKSTSGGTAALGCLVKDYFPEPVTVSWNSGALTSGVHTFPAVLQSSGLYSLSSVVTVPSSSLGTQTYICNVNHKPSNTKVDKKVEPKSC
chain 3: not shown
notes: Humanized BCMA/CD3 FIT-Ig, outer BCMA and inner CD3 Fab
What does the source list for B4?
EC50 (read off the curve) [5]: ~3 nM; Kd [6]: 11.4 nM; koff [6]: 0.00621 s⁻¹; kon [6]: 546000 M⁻¹ s⁻¹; Kd [7]: 1.02 nM; koff [7]: 0.000191 s⁻¹; kon [7]: 188000 M⁻¹ s⁻¹; Kd [8]: 15.6 nM; koff [8]: 0.00572 s⁻¹; kon [8]: 367000 M⁻¹ s⁻¹

B5: HuEM0006-01-24 (antibody, human IgG1, kappa, L234A L235A, V domains shown)
VH: EVQLVQSGAEVKKPGASVKVSCKASGFSFTNYYVHWMRQAPGQGLEWMGWISPGSDNTKYNEKFKGRVTMTRDTSISTAYMELSRLRSDDTAVYYCARDDYGNYYFDYWGQGTTVTVSS
VL: DIVMTQSPDSLAVSLGERATINCKSSQSLLNARTRKNYLAWYQQKPGQPPKLLIYWASTRESGVPDRFSGSGSGTDFTLTISSLQAEDVAVYYCKQSYILRTFGGGTKVEIKR
notes: Humanized variant of mAbCD3-001; also called HuEM1006-01-24; monospecific anti-CD3 IgG
Which results are given for B5?
EC50 (read off the curve) [9]: ~0.5 nM; binding result (BCMA on NCI-H929 cells [10]): no binding (tested: 100 nM)

B6: huEM0006-01-27 (antibody, human IgG1, kappa, L234A L235A, V domains shown)
VH: EVQLVQSGAEVKKPGASVKVSCKASGFSFTNYYVHWMRQAPGQGLEWIGWISPGSDNTKYNEKFKGRVTLTADTSISTAYMELSRLRSDDTAVYYCARDDYGNYYFDYWGQGTTVTVSS
VL: DIVMTQSPDSLAVSLGERATINCKSSQSLLNARTRKNYLAWYQQKPGQPPKLLIYWASTRESGVPDRFSGSGSGTDFTLTISSLQAEDVAVYYCKQSYILRTFGGGTKVEIKR
Does B6 bind [9]?
Result: binds

Does B6 bind (BCMA on NCI-H929 cells [10])?
Result: no binding (tested: 100 nM)

B7: mAbBCMA-003 (antibody, V domains shown)
VH: EVQLQQSGTVLARPGASVRMSCKASGYIFPNFWMHWVKQRPGQGLDWIGAFYPGNDDTYYNQKFKGKAKLTAVTSASTAYMELSSLTSEDSAVYYCARSGYYGSSDAMDYWGQGTSVTVSS
VL: DIQMTQSPASLSASVGETVTVTCGASENIYGALNWYQRKQGKSPQLLIYGATNLADGISSRFSGSGSGRQFSLKISSLLPDDVATYFCQSVLTTPWTFGGGTKLEIK
notes: Mouse anti-BCMA IgG from hybridoma
How did the “EC50 of inhibition of the APRIL-induced NF-kB luciferase signal in HEK293F-BCMA-NF-kB-luc cells (inhibition %), unit from the axis” value [11] turn out when B7 was run?
The value was 6.18 nM.

And the “EC50 of inhibition of the BAFF-induced NF-kB luciferase signal in HEK293F-BCMA-NF-kB-luc cells (inhibition %), unit from the axis” value [12]?
The value was 3.87 nM.

And the “EC50 of inhibition of BAFF-induced NF-kB phosphorylation in NCI-H929 cells (inhibition %), unit from the axis” value (BCMA on NCI-H929 cells [13])?
Its value is 16.7 nM.

What about the Kd [14] of the same binder?
The Kd was 0.408 nM.

What about the koff [14] of the same binder?
Its koff is 1.85e-05 s⁻¹.

What about the kon [14] of the same binder?
Its kon is 45400 M⁻¹ s⁻¹.

What about the Kd [15] of the same binder?
Its Kd is 3.9 nM.

What about the koff [15] of the same binder?
Its koff is 0.000236 s⁻¹.

And the kon [15]?
The kon was 60600 M⁻¹ s⁻¹.
